As usually defined, the Kd is the concentration at which binding is half-saturated. A lower Kd goes with higher affinity.

Experimental findings from paper PMC6310021 (2018) are described below.

This test has as its target Metallothionein-2 (UniProt P02795). In words: SPR. Background: In SPR one partner is held on a chip, and binding of the other changes the refractive index at the surface.

Metallothionein-2, sequence (P02795 whole entry): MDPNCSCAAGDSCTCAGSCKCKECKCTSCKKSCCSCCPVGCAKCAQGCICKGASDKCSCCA

B1: Transgelin-2 (protein)
chain: ANRGPAYGLSREVQQKIEKQYDADLEQILIQWITTQCRKDVGRPQPGRENFQNWLKDGTVLCELINALYPEGQAPVKKIQASTMAFKQMEQISQFLQAAERYGINTTDIFQTVDLWEGKNMACVQRTLMNLGGLAVARDDGLFSGDPNWFPKKSKENPRNFSDNQLQEGKNVIGLQMGTNRGASQAGMTGYGMPRQIL
In turn, B1 showed a Kd of 110 nM.
